Results reported in the supplement of paper PMC9112550, “Optimization of the antimicrobial peptide Bac7 by deep mutational scanning” (BMC Biology, 2022).

Test system: Escherichia coli TOP10
Experiment: shrunken log2 fold change of peptide-encoding DNA abundance (4.5 h post-induction vs induction); higher = less antimicrobial activity (less host growth inhibition)
Settings: time post-induction: 4.5 h; library: site-saturation at positions 5, 18, 19, 20
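Note: peptides expressed intracellularly from a pBAD plasmid library in pooled LB shake-flask culture, induced with 0.3% L-arabinose, DNA abundance read by NGS, three biological replicates, DESeq2 with apeglm shrinkage.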

| Sequence | shrunken log2 fold change |
| --- | --- |
| RRIRYRPPRLPRPRPRPWMWPRP | 0.0261 |
| RRIRYRPPRLPRPRPRPWNDPRP | -0.0728 |
| RRIRYRPPRLPRPRPRPWNTPRP | -0.384 |
| RRIRYRPPRLPRPRPRPWPIPRP | 0.044 |
| RRIRYRPPRLPRPRPRPWPKPRP | 0.203 |
| RRIRYRPPRLPRPRPRPWSFPRP | -0.522 |
| RRIRYRPPRLPRPRPRPWSPPRP | -0.848 |
| RRIRYRPPRLPRPRPRPWSSPRP | 0.0132 |
| RRIRYRPPRLPRPRPRPWTKPRP | -0.319 |
| RRIRYRPPRLPRPRPRPWTNPRP | -0.00804 |
| RRIRYRPPRLPRPRPRPWVPPRP | -0.0218 |
| RRIRYRPPRLPRPRPRPWWYPRP | -0.139 |
| RRIRYRPPRLPRPRPRPYAPPRP | -0.784 |
| RRIRYRPPRLPRPRPRPYDYPRP | -0.145 |
| RRIRYRPPRLPRPRPRPYEAPRP | -0.336 |
| RRIRYRPPRLPRPRPRPYEQPRP | -0.0134 |
| RRIRYRPPRLPRPRPRPYFPPRP | -0.702 |
| RRIRYRPPRLPRPRPRPYIAPRP | -1.23 |

| Sequence | shrunken log2 fold change |
| --- | --- |
| RRIRYRPPRLPRPRPRPYIFPRP | -0.322 |
| RRIRYRPPRLPRPRPRPYMEPRP | -0.0102 |
| RRIRYRPPRLPRPRPRPYMHPRP | 0.0498 |
| RRIRYRPPRLPRPRPRPYMLPRP | -1.3 |
| RRIRYRPPRLPRPRPRPYMQPRP | -0.117 |
| RRIRYRPPRLPRPRPRPYMVPRP | -0.386 |
| RRIRYRPPRLPRPRPRPYNNPRP | -1.43 |
| RRIRYRPPRLPRPRPRPYPKPRP | -0.201 |
| RRIRYRPPRLPRPRPRPYPMPRP | -0.744 |
| RRIRYRPPRLPRPRPRPYQIPRP | -0.659 |
| RRIRYRPPRLPRPRPRPYSPPRP | -0.0311 |
| RRIRYRPPRLPRPRPRPYSRPRP | -0.01 |
| RRIRYRPPRLPRPRPRPYSSPRP | -0.0396 |
| RRIRYRPPRLPRPRPRPYTKPRP | -0.351 |
| RRIRYRPPRLPRPRPRPYWKPRP | -0.0135 |
| RRIRYRPPRLPRPRPRPYYLPRP | -0.31 |
| RRIRYRPPRLPRPRPRPYYYPRP | -0.476 |
